Consider 24 molecules from US6077680A (The University of Florida, dated 2000).

Like-named read-outs stand apart in the source and are kept apart here.

Assay [1] addresses cloned Kv1.3 channel, wild type.
Assay [2] concerns the target rat brain membrane K channels (delayed rectifier, primarily Kv1.2) (rat) (UniProt P63142).
Assay [3] has the same target. Put plainly: radioligand displacement, rat brain membranes. A general note: Displacement assays read how much labelled ligand stays bound in the presence of the test substance.
Assay [4] concerns the target Kv1.3 potassium channel of human T lymphocytes (human) (UniProt P22001).
Assay [5] concerns the target rat brain membrane K channels (delayed rectifier, primarily Kv1.2) (rat) (UniProt P63142). Put plainly: 125I-DTX displacement, rat brain membranes.
Assay [6] shares this target. This is another data set of the same source.
The target is the same in assay [7]. The source holds these as a separate data set.
Assay [8] has the same target. This is another data set of the same source.
A further assay has as its target Kv1.3 (Mus musculus, UniProt P16390). Put plainly: cell-based. Type of assay: cell-based.
Assay [9] deals with rat brain membrane K channels (primarily Kv1.2). Type of assay: binding. As to conditions: for IC50: read-out: IC50 Rat Brain 125I-CTX.
Assay [10] deals with Kv1.3 potassium channels in Jurkat T lymphocytes (Homo sapiens, UniProt P22001). Type of assay: cell-based.
Assay [11] has as its target rat brain membrane K channels (delayed rectifier, primarily Kv1.2) (rat) (UniProt P63142). This is another data set of the same source.
The target of assay [12] is IKCa channel of activated human T-cells (human) (UniProt O15554). Put plainly: whole-cell patch clamp block, activated human T-cells.
Assay [13] addresses rat brain membrane K channels (delayed rectifier, primarily Kv1.2) (rat) (UniProt P63142). The source holds these as a separate data set.
The target is the same in assay [14]. Put plainly: 125I-dendrotoxin displacement assay.
Assay [15] has as its target Kv1.3 potassium channel of human T lymphocytes (human, UniProt P22001). Put plainly: 125I-ChTX displacement, Jurkat T lymphocytes.

Chain of rat brain membrane K channels (delayed rectifier, primarily Kv1.2) (rat) (P63142 whole entry): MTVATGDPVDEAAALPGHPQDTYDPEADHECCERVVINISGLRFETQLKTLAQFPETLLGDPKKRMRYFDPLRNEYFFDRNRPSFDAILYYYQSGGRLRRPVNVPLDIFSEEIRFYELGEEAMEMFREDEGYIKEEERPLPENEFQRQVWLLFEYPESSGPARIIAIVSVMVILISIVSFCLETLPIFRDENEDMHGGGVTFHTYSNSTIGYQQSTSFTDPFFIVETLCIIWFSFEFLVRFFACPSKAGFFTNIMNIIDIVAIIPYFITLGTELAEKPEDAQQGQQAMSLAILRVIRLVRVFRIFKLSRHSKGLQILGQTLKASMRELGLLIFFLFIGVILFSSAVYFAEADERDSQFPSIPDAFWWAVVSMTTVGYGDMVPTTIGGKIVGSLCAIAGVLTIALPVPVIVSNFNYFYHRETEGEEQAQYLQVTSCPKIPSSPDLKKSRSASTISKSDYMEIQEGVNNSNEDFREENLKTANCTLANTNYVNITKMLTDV
Chain of Kv1.3 potassium channels in Jurkat T lymphocytes (P22001 whole entry): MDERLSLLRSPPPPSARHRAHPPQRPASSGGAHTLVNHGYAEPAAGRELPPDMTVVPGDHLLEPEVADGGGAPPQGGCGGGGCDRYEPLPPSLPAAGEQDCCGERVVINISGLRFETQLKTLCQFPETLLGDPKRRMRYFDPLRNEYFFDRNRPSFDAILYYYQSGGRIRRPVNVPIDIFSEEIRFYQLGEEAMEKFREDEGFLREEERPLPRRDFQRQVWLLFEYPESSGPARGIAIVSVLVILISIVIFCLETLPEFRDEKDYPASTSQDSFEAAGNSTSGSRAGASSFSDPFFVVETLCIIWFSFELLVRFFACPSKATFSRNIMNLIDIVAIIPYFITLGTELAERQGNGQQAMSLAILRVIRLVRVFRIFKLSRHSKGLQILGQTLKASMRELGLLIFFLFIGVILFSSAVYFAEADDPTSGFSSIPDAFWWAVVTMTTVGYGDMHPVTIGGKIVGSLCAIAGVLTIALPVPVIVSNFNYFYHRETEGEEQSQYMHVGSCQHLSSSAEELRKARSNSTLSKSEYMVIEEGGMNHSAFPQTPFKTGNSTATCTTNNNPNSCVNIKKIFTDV
Chain of Kv1.3 (P16390 whole entry): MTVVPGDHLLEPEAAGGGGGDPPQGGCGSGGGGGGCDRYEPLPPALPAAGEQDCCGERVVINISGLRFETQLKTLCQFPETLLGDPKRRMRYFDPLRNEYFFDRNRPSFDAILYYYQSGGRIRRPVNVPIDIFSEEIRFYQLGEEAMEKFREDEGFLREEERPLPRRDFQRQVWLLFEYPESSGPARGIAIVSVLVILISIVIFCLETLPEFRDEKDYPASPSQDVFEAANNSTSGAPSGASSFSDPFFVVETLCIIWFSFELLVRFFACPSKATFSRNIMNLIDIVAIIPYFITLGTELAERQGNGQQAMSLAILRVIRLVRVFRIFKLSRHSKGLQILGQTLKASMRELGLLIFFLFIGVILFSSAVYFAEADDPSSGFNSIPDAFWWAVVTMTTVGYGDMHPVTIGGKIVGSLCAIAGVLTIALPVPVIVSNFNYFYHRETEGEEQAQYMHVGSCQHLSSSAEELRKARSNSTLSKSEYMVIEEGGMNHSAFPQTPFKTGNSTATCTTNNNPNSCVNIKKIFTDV
Chain of Kv1.3 potassium channel of human T lymphocytes (human) (P22001 whole entry): as the sequence (P22001 whole entry) above

For ShK K22Orn (peptide), the Kd in [1] was found to be 2 nM. In assay [2], the IC50 ratio (analog IC50/ShK IC50) worked out at 1.2 and the free energy difference of binding came to 0.11 kcal/mol. Besides, the reduction of apparent affinity in assay [3] was 120%. Further, in assay [4], the equipotent molar ratio (analog IC50/ShK IC50) for block of Kv1.3 current is 1.2. Further, the IC50 ratio (analog IC50/ShK IC50) in assay [5] was 1.7. In assay [6], this molecule registered a concentration for half-maximal inhibition (IC50) of 20 nM.
Turning to ShK Y23Nph (peptide), in assay [1], the Kd is 0.2 nM. Besides, in [7], the IC50 ratio (analog IC50/ShK IC50) was 1 and the free energy difference of binding was 0 kcal/mol. Further, the IC50 ratio (analog IC50/ShK IC50) in assay [5] was found to be 1.
For ShK F27Cha (peptide), in assay [8], the IC50 ratio (analog IC50/ShK IC50) is 0.7 and the free energy difference of binding was -0.21 kcal/mol. In [5], the IC50 ratio (analog IC50/ShK IC50) came out at 0.7 and the free energy difference of binding was -0.21 kcal/mol.
On Kv1.3, `CC[C@H](C)[C@@H]1NC(=O)[C@@H](NC(=O)[C@H](CO)NC(=O)[C@@H](N)CCCNC(=N)N)CSSC[C@@H](C(=O)O)NC(=O)[C@H]([C@@H](C)O)NC(=O)CNC(=O)[C@@H]2CSSC[C@@H]3NC(=O)[C@H](CCC(N)=O)NC(=O)[C@H](Cc4ccccc4)NC(=O)[C@H](C)NC(=O)[C@H]([C@@H](C)O)NC(=O)[C@H](CSSC[C@H](NC(=O)[C@H](Cc4ccccc4)NC(=O)[C@H](CO)NC(=O)[C@H](CC(C)C)NC(=O)[C@H](CCCNC(=N)N)NC(=O)[C@H](Cc4ccc(O)cc4)NC(=O)[C@H](CCCN)NC(=O)[C@H](CCSC)NC(=O)[C@H](CO)NC(=O)[C@H](Cc4c[nH]cn4)NC(=O)[C@H](CCCCN)NC3=O)C(=O)N[C@@H](CCCNC(=N)N)C(=O)N[C@@H](CCCCN)C(=O)N[C@@H]([C@@H](C)O)C(=O)N2)NC(=O)[C@H](CCCNC(=N)N)NC(=O)[C@H](CO)NC(=O)[C@H](CCCCN)NC(=O)[C@@H]2CCCN2C(=O)[C@H]([C@@H](C)CC)NC(=O)[C@H]([C@@H](C)O)NC(=O)[C@H](CC(=O)O)NC1=O` [K22Orn] came in with a Kd of 2 ± 1 nM. Also, in assay [9], the “Equipotent Molar Ration (Analog IC50 /ShK IC50) Rat brain” value worked out at 1.7; the “IC50 Ratio” value turned out to be 1.2; the “binding affinity for rat brain K channels relative to wild-type ShK toxin, in words” value is “little effect”; the “reduction of apparent affinity” value is reported as “about 120%”. For the same molecule, in assay [9], the ΔF is reported as 0.11 and the IC50 came out at 20 nM. In assay [10], the “Equipotent Molar Ration (Analog IC50 /ShK IC50) Lymphocyte” value worked out at 1.2 and the “reduction of affinity (IC50) for Kv1.3 relative to ShK toxin” value is “only slightly reduced (two times)”.
On to ShK desR1-S2 (peptide), for which, in [8], the IC50 ratio (analog IC50/ShK IC50) is 2.54 and the free energy difference of binding is 0.54 kcal/mol. Also, in assay [5], the IC50 ratio (analog IC50/ShK IC50) came to 2.5 and the free energy difference of binding worked out at 0.54 kcal/mol.
Take ShK K22 citrulline (peptide): in [6], the IC50 came to 2000 nM.
As for ShK K22Homocit (peptide), the Kd in assay [1] is over 100 nM. Also, in assay [2], the IC50 ratio (analog IC50/ShK IC50) was over 500 and the free energy difference of binding is over 3.65 kcal/mol. In assay [5], the IC50 ratio (analog IC50/ShK IC50) was over 500.
For the molecule `CC[C@H](C)[C@@H]1NC(=O)[C@@H](NC(=O)[C@H](CO)NC(=O)[C@@H](N)CCCNC(=N)N)CSSC[C@@H](C(=O)O)NC(=O)[C@H]([C@@H](C)O)NC(=O)CNC(=O)[C@@H]2CSSC[C@@H]3NC(=O)[C@H](CCC(N)=O)NC(=O)[C@H](Cc4ccccc4)NC(=O)[C@H](C)NC(=O)[C@H]([C@@H](C)O)NC(=O)[C@H](CSSC[C@H](NC(=O)[C@H](Cc4ccccc4)NC(=O)[C@H](CO)NC(=O)[C@H](CC(C)C)NC(=O)[C@H](CCCNC(=N)N)NC(=O)[C@H](Cc4ccc(O)cc4)NC(=O)[C@H](CCCCNC(N)=O)NC(=O)[C@H](CCSC)NC(=O)[C@H](CO)NC(=O)[C@H](Cc4c[nH]cn4)NC(=O)[C@H](CCCCN)NC3=O)C(=O)N[C@@H](CCCNC(=N)N)C(=O)N[C@@H](CCCCN)C(=O)N[C@@H]([C@@H](C)O)C(=O)N2)NC(=O)[C@H](CCCNC(=N)N)NC(=O)[C@H](CO)NC(=O)[C@H](CCCCN)NC(=O)[C@@H]2CCCN2C(=O)[C@H]([C@@H](C)CC)NC(=O)[C@H]([C@@H](C)O)NC(=O)[C@H](CC(=O)O)NC1=O` [K22Homocit], the Kd at Kv1.3 (read-out: Kd) is over 100 nM.
As to ShK K22Nle (peptide), in [2], the IC50 ratio (analog IC50/ShK IC50) is over 250 and the free energy difference of binding is over 3.23 kcal/mol. Moreover, the equipotent molar ratio (analog IC50/ShK IC50) for block of Kv1.3 current in assay [4] was over 23. Further, the IC50 ratio (analog IC50/ShK IC50) in [5] was over 250.
Regarding `CCCC[C@@H]1NC(=O)[C@H](CO)NC(=O)[C@H](Cc2c[nH]cn2)NC(=O)[C@H](CCCCN)NC(=O)[C@@H]2CSSC[C@@H]3NC(=O)[C@H]([C@@H](C)O)NC(=O)[C@H](CCCCN)NC(=O)[C@H](CCCNC(=N)N)NC(=O)[C@H](CSSC[C@H](NC(=O)[C@H](CCCNC(=N)N)NC(=O)[C@H](CO)NC(=O)[C@H](CCCCN)NC(=O)[C@@H]4CCCN4C(=O)[C@H]([C@@H](C)CC)NC(=O)[C@H]([C@@H](C)O)NC(=O)[C@H](CC(=O)O)NC(=O)[C@H]([C@@H](C)CC)NC(=O)[C@@H](NC(=O)[C@H](CO)NC(=O)[C@@H](N)CCCNC(=N)N)CSSC[C@@H](C(=O)O)NC(=O)[C@H]([C@@H](C)O)NC(=O)CNC3=O)C(=O)N[C@@H]([C@@H](C)O)C(=O)N[C@@H](C)C(=O)N[C@@H](Cc3ccccc3)C(=O)N[C@@H](CCC(N)=O)C(=O)N2)NC(=O)[C@H](Cc2ccccc2)NC(=O)[C@H](CO)NC(=O)[C@H](CC(C)C)NC(=O)[C@H](CCCNC(=N)N)NC(=O)[C@H](Cc2ccc(O)cc2)NC(=O)[C@H](CCCCN)NC1=O` [M21Nle], in assay [9], the “Equipotent Molar Ration (Analog IC50 /ShK IC50) Rat brain” value came to 0.8, the “effect on binding to either K channel subtype” value is recorded as “no significant affect on binding” and the IC50 stood at 9 nM. The “Equipotent Molar Ration (Analog IC50 /ShK IC50) Lymphocyte” value in [10] is reported as 0.80.
Turning to ShK K9E (analog 104) (peptide), the IC50 ratio (analog IC50/ShK IC50) in assay [11] turned out to be 3.57.
In the case of ShK Y23Cha (peptide), in [7], the IC50 ratio (analog IC50/ShK IC50) stood at 8.8 and the free energy difference of binding came out at 1.27 kcal/mol. Moreover, in assay [5], the IC50 ratio (analog IC50/ShK IC50) was determined as 8.8 and the free energy difference of binding came to 1.27 kcal/mol.
Take “ShK-K22DAP (peptide; other documents disagree on this pair)”: in [12], the Kd was over 100 nM.
On to ShK M21Nle (peptide), for which, in assay [4], the equipotent molar ratio (analog IC50/ShK IC50) for block of Kv1.3 current came out at 0.8. Further, in assay [5], the IC50 ratio (analog IC50/ShK IC50) was 0.8. Moreover, the IC50 in [6] was 9 nM.
Regarding ShK K9Q (peptide), in assay [4], the equipotent molar ratio (analog IC50/ShK IC50) for block of Kv1.3 current is 9.6. Further, in [5], the IC50 ratio (analog IC50/ShK IC50) came to 0.6. Also, the half-inhibitory concentration (IC50) in [6] came out at 11 nM.
For ShK R1S (peptide), in that order: 0.92, 1.5 and 16 nM.
In the case of `CC[C@H](C)[C@@H]1NC(=O)[C@@H](NC(=O)[C@H](CO)NC(=O)[C@@H](N)CCCNC(=N)N)CSSC[C@@H](C(=O)O)NC(=O)[C@H]([C@@H](C)O)NC(=O)CNC(=O)[C@@H]2CSSC[C@@H]3NC(=O)[C@H](CCC(N)=O)NC(=O)[C@H](Cc4ccccc4)NC(=O)[C@H](C)NC(=O)[C@H]([C@@H](C)O)NC(=O)[C@H](CSSC[C@H](NC(=O)[C@H](Cc4ccccc4)NC(=O)[C@H](CO)NC(=O)[C@H](CC(C)C)NC(=O)[C@H](CCCNC(=N)N)NC(=O)[C@H](Cc4ccc(O)cc4)NC(=O)[C@H](CCCCN)NC(=O)[C@H](CCSC)NC(=O)[C@H](CO)NC(=O)[C@H](Cc4c[nH]cn4)NC(=O)[C@H](CCCCN)NC3=O)C(=O)N[C@@H](CCCNC(=N)N)C(=O)N[C@@H](CCCCN)C(=O)N[C@@H]([C@@H](C)O)C(=O)N2)NC(=O)[C@H](CCCNC(=N)N)NC(=O)[C@H](CO)NC(=O)[C@H](CCC(N)=O)NC(=O)[C@@H]2CCCN2C(=O)[C@H]([C@@H](C)CC)NC(=O)[C@H]([C@@H](C)O)NC(=O)[C@H](CC(=O)O)NC1=O` [K9Q], in [9], the “Equipotent Molar Ration (Analog IC50 /ShK IC50) Rat brain” value is on record as 0.6 and the IC50 was found to be 11 nM. Further, in assay [10], the “Equipotent Molar Ration (Analog IC50 /ShK IC50) Lymphocyte” value amounted to 9.6 and the “reduction of affinity (IC50) for Kv1.3 relative to ShK toxin” value was determined as 9.6 fold.
The molecule ShK Y23Apa (peptide) showed a Kd in assay [1] of 0.12 nM. In [7], the IC50 ratio (analog IC50/ShK IC50) was found to be 0.8 and the free energy difference of binding is -0.13 kcal/mol. The IC50 ratio (analog IC50/ShK IC50) in assay [5] was determined as 0.8.
For the molecule ShK A15 + A25 (peptide), the IC50 ratio (analog IC50/ShK IC50) in assay [5] and in assay [13] was 2.1 each time. The free energy difference of binding in assay [5] and in assay [13] was 0.43 kcal/mol in each case.
As for ShK Y23Bpa (peptide), in assay [7], the IC50 ratio (analog IC50/ShK IC50) was found to be 3.76 and the free energy difference of binding was 0.78 kcal/mol.

B1: monocyclic truncated ShK analog of Example 14 (Cys17-Cys32) (peptide)
peptide: KSRCTAFQCKHSXKYRLSFCRKTC
modifications: norleucine at position 21; Cys12 and Cys28 S-acetamidomethyl (Acm)
Regarding B1, in assay [14], the IC50 ratio (analog IC50/ShK IC50) was over 3000.

B2: bicyclic truncated ShK analog of Example 14 (Cys12-Cys28, Cys17-Cys32) (peptide)
peptide: KSRCTAFQCKHSXKYRLSFCRKTC
modifications: norleucine at position 21
Consider B2, for which the IC50 ratio (analog IC50/ShK IC50) in assay [14] worked out at 1360.

B3: ShK R1S (peptide)
peptide: SSCIDTIPKSRCTAFQCKHSMKYRLSFCRKTCGTC
B3: in [15], the IC50 was 0.05 nM.

B4: ShK K9Q (peptide)
peptide: RSCIDTIPQSRCTAFQCKHSMKYRLSFCRKTCGTC
For B4, the IC50 in assay [15] was determined as 0.31 nM.

As a reminder, the Kd is the free concentration of one partner at which half of the binding sites on the other are occupied at equilibrium, for simple one-to-one binding. One may read the IC50 as the midpoint of a concentration-inhibition curve.
